Test results taken from FireProtDB (doi:10.1093/protein/12.10.841).
“And” between values parts separate entries of the source, which are not always exact repeats. Equal values may be shown once.

B1: Lysozyme C, P61626 (parent)
chain: MKALIVLGLVLLSVTVQGKVFERCELARTLKRLGMDGYRGISLANWMCLAKWESGYNTRATNYNAGDRSTDYGIFQINSRYWCNDGKTPGAVNACHLSCSALLQDNIADAVACAKRVVRDPQGIRAWVAWRNRCQNRDVRQYVQGCGV

Variants of: B1
Settings: Homo sapiens; pH 2.4; Thermal; DSC; glycine 0.05 M; reversible: yes; structure 1LZ1; whole UniProt chain shown

Question: What does the source list for MKALIVLGLVLLSVTVQGKVFERCELARTLKRLGMDGYRGISLANWMCLAKWESGYNTRATNYNAGDRSTDYGIFQTNSRYWCNDGKTPGAVNACHLSCSALLQDNIADAVACAKRVVRDPQGIRAWVAWRNRCQNRDVRQYVQGCGV [I77T]?
Answer: Tm: 52.9 °C; heat capacity change of unfolding: 1.65 kcal/mol/K; unfolding enthalpy (calorimetric): 90.3 kcal/mol; unfolding enthalpy (van 't Hoff): 98.7 kcal/mol

Same assay, conditions: Homo sapiens; pH 2.62; Thermal; DSC; glycine 0.05 M; reversible: yes; structure 1LZ1; whole UniProt chain shown

Question: With MKALIVLGLVLLSVTVQGKVFERCELARTLKRLGMDGYRGISLANWMCLAKWESGYNTRATNYNAGDRSTDYGIFQTNSRYWCNDGKTPGAVNACHLSCSALLQDNIADAVACAKRVVRDPQGIRAWVAWRNRCQNRDVRQYVQGCGV [I77T] as the variant, how does the Tm read?
Answer: 56.9 °C

Question: What about the “heat capacity change of unfolding” value of the same variant?
Answer: 1.67 kcal/mol/K

Question: And the “unfolding enthalpy (calorimetric)” value?
Answer: 104 kcal/mol

Question: And the “unfolding enthalpy (van 't Hoff)” value?
Answer: 105 kcal/mol

Same assay, conditions: Homo sapiens; pH 2.7; 64.9 °C; Thermal; DSC; glycine 0.05 M; reversible: yes; structure 1LZ1; whole UniProt chain shown

Question: With MKALIVLGLVLLSVTVQGKVFERCELARTLKRLGMDGYRGISLANWMCLAKWESGYNTRATNYNAGDRSTDYGIFQTNSRYWCNDGKTPGAVNACHLSCSALLQDNIADAVACAKRVVRDPQGIRAWVAWRNRCQNRDVRQYVQGCGV [I77T] as the variant, how does the “ddG of mutation (higher = less stable)” value read?
Answer: 2.22 kcal/mol

Question: Which “ddG of mutation (higher = less stable)” value does the source give for MKALIVLGLVLLSVTVQGKVFERCELARTLKRLGMDGYRGISLANWMCLAKWESGYNTRATNYNAGDRSTDYGLFQINSRYWCNDGKTPGAVNACHLSCSALLQDNIADAVACAKRVVRDPQGIRAWVAWRNRCQNRDVRQYVQGCGV [I74L] here?
Answer: 0.1 kcal/mol

Question: With MKALIVLGLVLLSVTVQGKVFERCELARTLKRLGMDGYRGISLANWMCLAKWESGYNTRATNYNAGDRSTDYGIFQLNSRYWCNDGKTPGAVNACHLSCSALLQDNIADAVACAKRVVRDPQGIRAWVAWRNRCQNRDVRQYVQGCGV [I77L] as the variant, how does the “ddG of mutation (higher = less stable)” value read?
Answer: 0 kcal/mol

Same assay, conditions: Homo sapiens; pH 2.7; Thermal; DSC; glycine 0.05 M; reversible: yes; structure 1LZ1; whole UniProt chain shown

Question: With MKALIVLGLVLLSVTVQGKVFERCELARTLKRLGMDGYRGISLANWMCLAKWESGYNTRATNYNAGDRSTDYGIFQTNSRYWCNDGKTPGAVNACHLSCSALLQDNIADAVACAKRVVRDPQGIRAWVAWRNRCQNRDVRQYVQGCGV [I77T] as the variant, how does the Tm read?
Answer: 64.9 °C

Question: For MKALIVLGLVLLSVTVQGKVFERCELARTLKRLGMDGYRGISLANWMCLAKWESGYNTRATNYNAGDRSTDYGLFQINSRYWCNDGKTPGAVNACHLSCSALLQDNIADAVACAKRVVRDPQGIRAWVAWRNRCQNRDVRQYVQGCGV [I74L], which Tm is on record?
Answer: 64.6 °C and 64.9 °C

Question: And the “change of melting temperature, mutant - wild type (higher = more stable)” value?
Answer: -0.3 °C

Question: And the “heat capacity change of unfolding” value?
Answer: 1.41 kcal/mol/K

Question: What about the “unfolding enthalpy (calorimetric)” value of the same variant?
Answer: 107 kcal/mol

Question: What about the “unfolding enthalpy (van 't Hoff)” value of the same variant?
Answer: 119 kcal/mol

Question: With MKALIVLGLVLLSVTVQGKVFERCELARTLKRLGMDGYRGISLANWMCLAKWESGYNTRATNYNAGDRSTDYGIFQLNSRYWCNDGKTPGAVNACHLSCSALLQDNIADAVACAKRVVRDPQGIRAWVAWRNRCQNRDVRQYVQGCGV [I77L] as the variant, how does the Tm read?
Answer: 64.9 °C

Question: And the “change of melting temperature, mutant - wild type (higher = more stable)” value?
Answer: 0 °C

Question: And the “heat capacity change of unfolding” value?
Answer: 1.27 kcal/mol/K

Question: And the “unfolding enthalpy (calorimetric)” value?
Answer: 114 kcal/mol

Question: And the “unfolding enthalpy (van 't Hoff)” value?
Answer: 122 kcal/mol

Same assay, conditions: Homo sapiens; pH 2.8; Thermal; DSC; glycine 0.05 M; reversible: yes; structure 1LZ1; whole UniProt chain shown

Question: Which Tm does the source give for MKALIVLGLVLLSVTVQGKVFERCELARTLKRLGMDGYRGISLANWMCLAKWESGYNTRATNYNAGDRSTDYGIFQTNSRYWCNDGKTPGAVNACHLSCSALLQDNIADAVACAKRVVRDPQGIRAWVAWRNRCQNRDVRQYVQGCGV [I77T] here?
Answer: 59.5 °C

Question: And the “heat capacity change of unfolding” value?
Answer: 1.17 kcal/mol/K

Question: And the “unfolding enthalpy (calorimetric)” value?
Answer: 106 kcal/mol

Question: What about the “unfolding enthalpy (van 't Hoff)” value of the same variant?
Answer: 110 kcal/mol

Same assay, conditions: Homo sapiens; pH 2.99; Thermal; DSC; glycine 0.05 M; reversible: yes; structure 1LZ1; whole UniProt chain shown

Question: For MKALIVLGLVLLSVTVQGKVFERCELARTLKRLGMDGYRGISLANWMCLAKWESGYNTRATNYNAGDRSTDYGIFQTNSRYWCNDGKTPGAVNACHLSCSALLQDNIADAVACAKRVVRDPQGIRAWVAWRNRCQNRDVRQYVQGCGV [I77T], which Tm is on record?
Answer: 62.9 °C

Question: What about the “heat capacity change of unfolding” value of the same variant?
Answer: 1.39 kcal/mol/K

Question: What about the “unfolding enthalpy (calorimetric)” value of the same variant?
Answer: 107 kcal/mol

Question: What about the “unfolding enthalpy (van 't Hoff)” value of the same variant?
Answer: 107 kcal/mol

Same assay, conditions: Homo sapiens; pH 3.15; Thermal; DSC; glycine 0.05 M; reversible: yes; structure 1LZ1; whole UniProt chain shown

Question: With MKALIVLGLVLLSVTVQGKVFERCELARTLKRLGMDGYRGISLANWMCLAKWESGYNTRATNYNAGDRSTDYGIFQTNSRYWCNDGKTPGAVNACHLSCSALLQDNIADAVACAKRVVRDPQGIRAWVAWRNRCQNRDVRQYVQGCGV [I77T] as the variant, how does the Tm read?
Answer: 64.9 °C

Question: What about the “heat capacity change of unfolding” value of the same variant?
Answer: 1.2 kcal/mol/K

Question: And the “unfolding enthalpy (calorimetric)” value?
Answer: 111 kcal/mol

Question: What about the “unfolding enthalpy (van 't Hoff)” value of the same variant?
Answer: 119 kcal/mol

Same assay, conditions: Homo sapiens; pH 2.48; Thermal; DSC; glycine 0.05 M; reversible: yes; structure 1LZ1; whole UniProt chain shown

Question: What does the source list for MKALIVLGLVLLSVTVQGKVFERCELARTLKRLGMDGYRGISLANWMCLAKWESGYNTRATNYNAGDRSTDYGLFQINSRYWCNDGKTPGAVNACHLSCSALLQDNIADAVACAKRVVRDPQGIRAWVAWRNRCQNRDVRQYVQGCGV [I74L]?
Answer: Tm: 61.2 °C; heat capacity change of unfolding: 1.41 kcal/mol/K; unfolding enthalpy (calorimetric): 103 kcal/mol; unfolding enthalpy (van 't Hoff): 113 kcal/mol

Same assay, conditions: Homo sapiens; pH 2.65; Thermal; DSC; glycine 0.05 M; reversible: yes; structure 1LZ1; whole UniProt chain shown

Question: Which results are given for MKALIVLGLVLLSVTVQGKVFERCELARTLKRLGMDGYRGISLANWMCLAKWESGYNTRATNYNAGDRSTDYGLFQINSRYWCNDGKTPGAVNACHLSCSALLQDNIADAVACAKRVVRDPQGIRAWVAWRNRCQNRDVRQYVQGCGV [I74L]?
Answer: Tm: 64 °C; heat capacity change of unfolding: 1.55 kcal/mol/K; unfolding enthalpy (calorimetric): 105 kcal/mol; unfolding enthalpy (van 't Hoff): 119 kcal/mol

Same assay, conditions: Homo sapiens; pH 2.96; Thermal; DSC; glycine 0.05 M; reversible: yes; structure 1LZ1; whole UniProt chain shown

Question: For MKALIVLGLVLLSVTVQGKVFERCELARTLKRLGMDGYRGISLANWMCLAKWESGYNTRATNYNAGDRSTDYGLFQINSRYWCNDGKTPGAVNACHLSCSALLQDNIADAVACAKRVVRDPQGIRAWVAWRNRCQNRDVRQYVQGCGV [I74L], which Tm is on record?
Answer: 68.7 °C

Question: And the “heat capacity change of unfolding” value?
Answer: 1.27 kcal/mol/K

Question: And the “unfolding enthalpy (calorimetric)” value?
Answer: 112 kcal/mol

Question: And the “unfolding enthalpy (van 't Hoff)” value?
Answer: 125 kcal/mol

Question: With MKALIVLGLVLLSVTVQGKVFERCELARTLKRLGMDGYRGISLANWMCLAKWESGYNTRATNYNAGDRSTDYGIFQLNSRYWCNDGKTPGAVNACHLSCSALLQDNIADAVACAKRVVRDPQGIRAWVAWRNRCQNRDVRQYVQGCGV [I77L] as the variant, how does the Tm read?
Answer: 69.8 °C

Question: What about the “heat capacity change of unfolding” value of the same variant?
Answer: 1.31 kcal/mol/K

Question: And the “unfolding enthalpy (calorimetric)” value?
Answer: 119 kcal/mol

Question: What about the “unfolding enthalpy (van 't Hoff)” value of the same variant?
Answer: 128 kcal/mol

Same assay, conditions: Homo sapiens; pH 2.51; Thermal; DSC; glycine 0.05 M; reversible: yes; structure 1LZ1; whole UniProt chain shown

Question: With MKALIVLGLVLLSVTVQGKVFERCELARTLKRLGMDGYRGISLANWMCLAKWESGYNTRATNYNAGDRSTDYGIFQLNSRYWCNDGKTPGAVNACHLSCSALLQDNIADAVACAKRVVRDPQGIRAWVAWRNRCQNRDVRQYVQGCGV [I77L] as the variant, how does the Tm read?
Answer: 61.4 °C

Question: And the “heat capacity change of unfolding” value?
Answer: 1.12 kcal/mol/K

Question: What about the “unfolding enthalpy (calorimetric)” value of the same variant?
Answer: 109 kcal/mol

Question: And the “unfolding enthalpy (van 't Hoff)” value?
Answer: 117 kcal/mol

Same assay, conditions: Homo sapiens; pH 2.66; Thermal; DSC; glycine 0.05 M; reversible: yes; structure 1LZ1; whole UniProt chain shown

Question: What does the source list for MKALIVLGLVLLSVTVQGKVFERCELARTLKRLGMDGYRGISLANWMCLAKWESGYNTRATNYNAGDRSTDYGIFQLNSRYWCNDGKTPGAVNACHLSCSALLQDNIADAVACAKRVVRDPQGIRAWVAWRNRCQNRDVRQYVQGCGV [I77L]?
Answer: Tm: 64.5 °C; heat capacity change of unfolding: 1.17 kcal/mol/K; unfolding enthalpy (calorimetric): 113 kcal/mol; unfolding enthalpy (van 't Hoff): 122 kcal/mol

Same assay, conditions: Homo sapiens; pH 2.83; Thermal; DSC; glycine 0.05 M; reversible: yes; structure 1LZ1; whole UniProt chain shown

Question: With MKALIVLGLVLLSVTVQGKVFERCELARTLKRLGMDGYRGISLANWMCLAKWESGYNTRATNYNAGDRSTDYGIFQLNSRYWCNDGKTPGAVNACHLSCSALLQDNIADAVACAKRVVRDPQGIRAWVAWRNRCQNRDVRQYVQGCGV [I77L] as the variant, how does the Tm read?
Answer: 67 °C

Question: What about the “heat capacity change of unfolding” value of the same variant?
Answer: 1.17 kcal/mol/K

Question: What about the “unfolding enthalpy (calorimetric)” value of the same variant?
Answer: 116 kcal/mol

Question: And the “unfolding enthalpy (van 't Hoff)” value?
Answer: 126 kcal/mol

Same assay, conditions: Homo sapiens; pH 3.17; Thermal; DSC; glycine 0.05 M; reversible: yes; structure 1LZ1; whole UniProt chain shown

Question: For MKALIVLGLVLLSVTVQGKVFERCELARTLKRLGMDGYRGISLANWMCLAKWESGYNTRATNYNAGDRSTDYGIFQLNSRYWCNDGKTPGAVNACHLSCSALLQDNIADAVACAKRVVRDPQGIRAWVAWRNRCQNRDVRQYVQGCGV [I77L], which Tm is on record?
Answer: 72.1 °C

Question: And the “heat capacity change of unfolding” value?
Answer: 1.24 kcal/mol/K

Question: What about the “unfolding enthalpy (calorimetric)” value of the same variant?
Answer: 123 kcal/mol

Question: And the “unfolding enthalpy (van 't Hoff)” value?
Answer: 132 kcal/mol
